What follows are substances tested against recombinant human TNFα (RDI) (human) (UniProt P01375) (assay: cell-based or functional assay).
recombinant human TNFα (RDI) (human), sequence (P01375 77-233 limits assumed): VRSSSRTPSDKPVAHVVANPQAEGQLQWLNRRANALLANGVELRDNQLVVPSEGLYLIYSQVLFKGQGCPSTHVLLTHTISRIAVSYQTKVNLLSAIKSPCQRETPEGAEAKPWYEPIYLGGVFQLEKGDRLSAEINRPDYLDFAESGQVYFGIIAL

MMP12 (enzyme), sequence (P39900 106-470): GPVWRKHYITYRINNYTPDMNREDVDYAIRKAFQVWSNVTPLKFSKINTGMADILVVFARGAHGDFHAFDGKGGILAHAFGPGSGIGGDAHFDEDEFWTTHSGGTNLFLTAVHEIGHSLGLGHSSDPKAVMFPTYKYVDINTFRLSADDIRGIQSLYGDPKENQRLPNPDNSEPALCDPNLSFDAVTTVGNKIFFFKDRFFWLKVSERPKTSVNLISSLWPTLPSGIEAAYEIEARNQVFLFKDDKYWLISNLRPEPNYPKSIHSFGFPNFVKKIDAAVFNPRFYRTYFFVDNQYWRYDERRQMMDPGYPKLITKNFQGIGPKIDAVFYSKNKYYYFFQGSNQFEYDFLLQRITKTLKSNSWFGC
TRYPSIN (commercial protease of the screen) (enzyme), sequence (P00760 24-246): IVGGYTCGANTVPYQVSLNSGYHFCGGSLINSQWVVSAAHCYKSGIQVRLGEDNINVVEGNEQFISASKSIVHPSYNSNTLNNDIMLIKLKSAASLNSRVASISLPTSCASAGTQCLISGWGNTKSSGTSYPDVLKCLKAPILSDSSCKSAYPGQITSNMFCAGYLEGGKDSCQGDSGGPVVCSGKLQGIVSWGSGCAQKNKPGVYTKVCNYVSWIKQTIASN

MMP12 (enzyme) and Tryptase (enzyme) are within 0.2 log units of each other in log reduction in TNFα activity at the 50% survival level, L929 cytotoxicity bioassay after overnight digestion: 0.65 log for the first, 0.62 log for the second.

Going from ELASTASE (enzyme) to MT1-MMP (enzyme), the log reduction in TNFα activity at the 50% survival level, L929 cytotoxicity bioassay after overnight digestion falls from 1.45 log to 0.86 log (0.59 log units).

Going from “TRYPSIN (commercial protease of the screen) (enzyme)” to CHYMOTRYPSIN (enzyme), the log reduction in TNFα activity at the 50% survival level, L929 cytotoxicity bioassay after overnight digestion rises from 2.3 log to 2.74 log (0.44 log units).

Reference: patent publication US20050074865A1
